In the supplement of paper PMC9112550, “Optimization of the antimicrobial peptide Bac7 by deep mutational scanning” (BMC Biology, 2022):

system: Escherichia coli TOP10; experiment: shrunken log2 fold change of peptide-encoding DNA abundance (4.5 h post-induction vs induction); higher = less antimicrobial activity (less host growth inhibition); conditions: time post-induction: 4.5 h; library: site-saturation at positions 5, 18, 19, 20
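Note: peptides expressed intracellularly from a pBAD plasmid library in pooled LB shake-flask culture, induced with 0.3% L-arabinose, DNA abundance read by NGS, three biological replicates, DESeq2 with apeglm shrinkage.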

Going from RRIRNRPPRLPRPRPRPADSPRP to RRIRSRPPRLPRPRPRPQDVPRP, the “shrunken log2 fold change” value falls from -0.0169 to -0.277.

Compared with RRIRVRPPRLPRPRPRPWKHPRP, RRIRSRPPRLPRPRPRPMRHPRP is higher in “shrunken log2 fold change” value: -0.0202 for the first, 3.44 for the second.

Compared with RRIRRRPPRLPRPRPRPCMQPRP, RRIRGRPPRLPRPRPRPLAMPRP is higher in “shrunken log2 fold change” value: 0.23 for the first, 0.94 for the second.

Going from RRIRYRPPRLPRPRPRPLGIPRP to RRIRFRPPRLPRPRPRPIPVPRP, the “shrunken log2 fold change” value rises from -0.576 to 0.0949.

RRIRSRPPRLPRPRPRPQDSPRP and RRIRMRPPRLPRPRPRPNKYPRP are within 0.2 log units of each other in “shrunken log2 fold change” value: -0.164 for the first, -0.148 for the second.

Going from RRIRRRPPRLPRPRPRPDFQPRP to RRIRFRPPRLPRPRPRPRRSPRP, the “shrunken log2 fold change” value rises from -0.135 to 0.0713.

Compared with RRIRRRPPRLPRPRPRPGRFPRP, RRIRTRPPRLPRPRPRPAYHPRP is lower in “shrunken log2 fold change” value: 0.451 for the first, -0.0827 for the second.

Going from RRIRVRPPRLPRPRPRPVVMPRP to RRIRIRPPRLPRPRPRPGQPPRP, the “shrunken log2 fold change” value rises from -0.271 to 0.0462.

Going from RRIRLRPPRLPRPRPRPFVAPRP to RRIRRRPPRLPRPRPRPAVVPRP, the “shrunken log2 fold change” value rises from -0.0302 to 0.518.

Compared with RRIRGRPPRLPRPRPRPPWNPRP, RRIRHRPPRLPRPRPRPLWYPRP is lower in “shrunken log2 fold change” value: 0.411 for the first, -0.923 for the second.

Going from RRIRWRPPRLPRPRPRPSLFPRP to RRIRHRPPRLPRPRPRPQELPRP, the “shrunken log2 fold change” value falls from 0.114 to -0.122.

Compared with RRIRPRPPRLPRPRPRPECVPRP, RRIRARPPRLPRPRPRPMRGPRP is higher in “shrunken log2 fold change” value: 0.541 for the first, 1.56 for the second.

RRIRVRPPRLPRPRPRPAEYPRP and RRIRRRPPRLPRPRPRPHFVPRP are within 0.2 log units of each other in “shrunken log2 fold change” value: -0.124 for the first, -0.103 for the second.

RRIRARPPRLPRPRPRPWMHPRP and RRIRWRPPRLPRPRPRPPYHPRP are within 0.2 log units of each other in “shrunken log2 fold change” value: 0.026 for the first, -0.106 for the second.

Compared with RRIRVRPPRLPRPRPRPAIYPRP, RRIRKRPPRLPRPRPRPRYFPRP is higher in “shrunken log2 fold change” value: -0.294 for the first, 0.135 for the second.

Going from RRIRMRPPRLPRPRPRPGNAPRP to RRIRHRPPRLPRPRPRPMQHPRP, the “shrunken log2 fold change” value falls from 0.573 to 0.0685.

First: RRIRLRPPRLPRPRPRPSFDPRP
Second: RRIRDRPPRLPRPRPRPREKPRP
The “shrunken log2 fold change” value of the first is lower: -0.373 for the first, 0.342 for the second.

RRIRKRPPRLPRPRPRPANVPRP and RRIRERPPRLPRPRPRPKWMPRP are within 0.2 log units of each other in “shrunken log2 fold change” value: -0.196 for the first, -0.0884 for the second.

RRIRHRPPRLPRPRPRPIWQPRP and RRIRVRPPRLPRPRPRPITGPRP are within 0.2 log units of each other in “shrunken log2 fold change” value: -0.123 for the first, -0.00538 for the second.

RRIRTRPPRLPRPRPRPEERPRP and RRIRLRPPRLPRPRPRPYPCPRP are within 0.2 log units of each other in “shrunken log2 fold change” value: 0.12 for the first, 0.0537 for the second.

Compared with RRIRSRPPRLPRPRPRPEYHPRP, RRIRPRPPRLPRPRPRPGRTPRP is higher in “shrunken log2 fold change” value: -0.282 for the first, 0.153 for the second.

Compared with RRIRRRPPRLPRPRPRPVQVPRP, RRIRLRPPRLPRPRPRPDNNPRP is lower in “shrunken log2 fold change” value: 0.189 for the first, -0.444 for the second.

First: RRIRVRPPRLPRPRPRPMPFPRP
Second: RRIRVRPPRLPRPRPRPHYPPRP
The “shrunken log2 fold change” value of the first is higher: -0.259 for the first, -0.675 for the second.

First: RRIRLRPPRLPRPRPRPWMCPRP
Second: RRIRKRPPRLPRPRPRPKQKPRP
The “shrunken log2 fold change” value of the first is lower: -0.492 for the first, 0.054 for the second.

Going from RRIRERPPRLPRPRPRPWMLPRP to RRIRDRPPRLPRPRPRPTEFPRP, the “shrunken log2 fold change” value rises from -0.234 to -0.0306.

Compared with RRIRNRPPRLPRPRPRPYFRPRP, RRIRQRPPRLPRPRPRPNIIPRP is higher in “shrunken log2 fold change” value: -0.766 for the first, -0.247 for the second.

RRIRRRPPRLPRPRPRPCFFPRP and RRIRERPPRLPRPRPRPAMKPRP are within 0.2 log units of each other in “shrunken log2 fold change” value: 0.0648 for the first, -0.0226 for the second.

Compared with RRIRQRPPRLPRPRPRPQHHPRP, RRIRPRPPRLPRPRPRPSGNPRP is higher in “shrunken log2 fold change” value: -0.527 for the first, -0.273 for the second.

RRIRHRPPRLPRPRPRPQYVPRP and RRIRKRPPRLPRPRPRPQVSPRP are within 0.2 log units of each other in “shrunken log2 fold change” value: -0.213 for the first, -0.0595 for the second.

RRIRLRPPRLPRPRPRPVNVPRP and RRIRSRPPRLPRPRPRPQTLPRP are within 0.2 log units of each other in “shrunken log2 fold change” value: -0.00443 for the first, -0.119 for the second.

RRIRPRPPRLPRPRPRPPIFPRP and RRIRARPPRLPRPRPRPWKWPRP are within 0.2 log units of each other in “shrunken log2 fold change” value: -0.246 for the first, -0.163 for the second.

RRIRKRPPRLPRPRPRPFHPPRP and RRIRMRPPRLPRPRPRPHSMPRP are within 0.2 log units of each other in “shrunken log2 fold change” value: -0.158 for the first, -0.0253 for the second.

Compared with RRIRKRPPRLPRPRPRPLWWPRP, RRIRYRPPRLPRPRPRPWEEPRP is lower in “shrunken log2 fold change” value: 0.477 for the first, -0.0122 for the second.

RRIRDRPPRLPRPRPRPIRWPRP and RRIRKRPPRLPRPRPRPADYPRP are within 0.2 log units of each other in “shrunken log2 fold change” value: 0.13 for the first, -0.0391 for the second.

First: RRIRHRPPRLPRPRPRPFAHPRP
Second: RRIRIRPPRLPRPRPRPSKPPRP
The “shrunken log2 fold change” value of the first is higher: 0.186 for the first, -0.189 for the second.

RRIRSRPPRLPRPRPRPLYLPRP and RRIRQRPPRLPRPRPRPEKPPRP are within 0.2 log units of each other in “shrunken log2 fold change” value: -0.212 for the first, -0.129 for the second.

RRIRLRPPRLPRPRPRPLDYPRP and RRIRVRPPRLPRPRPRPECSPRP are within 0.2 log units of each other in “shrunken log2 fold change” value: -0.157 for the first, -0.091 for the second.

First: RRIRSRPPRLPRPRPRPTEDPRP
Second: RRIRLRPPRLPRPRPRPNHGPRP
The “shrunken log2 fold change” value of the first is higher: 0.14 for the first, -0.17 for the second.

RRIRHRPPRLPRPRPRPRQDPRP and RRIRYRPPRLPRPRPRPHENPRP are within 0.2 log units of each other in “shrunken log2 fold change” value: -0.189 for the first, -0.212 for the second.

Compared with RRIRFRPPRLPRPRPRPVCLPRP, RRIRCRPPRLPRPRPRPTMNPRP is lower in “shrunken log2 fold change” value: -0.121 for the first, -0.421 for the second.

Compared with RRIRPRPPRLPRPRPRPRANPRP, RRIRPRPPRLPRPRPRPVYGPRP is lower in “shrunken log2 fold change” value: 0.286 for the first, -0.486 for the second.

RRIRVRPPRLPRPRPRPTMCPRP and RRIRVRPPRLPRPRPRPKFGPRP are within 0.2 log units of each other in “shrunken log2 fold change” value: 0.15 for the first, 0.017 for the second.

RRIRLRPPRLPRPRPRPAGDPRP and RRIRSRPPRLPRPRPRPMQIPRP are within 0.2 log units of each other in “shrunken log2 fold change” value: 0.297 for the first, 0.141 for the second.

RRIRWRPPRLPRPRPRPLDLPRP and RRIRLRPPRLPRPRPRPQQFPRP are within 0.2 log units of each other in “shrunken log2 fold change” value: 0.00678 for the first, -0.0691 for the second.

RRIRRRPPRLPRPRPRPQSHPRP and RRIRKRPPRLPRPRPRPWDCPRP are within 0.2 log units of each other in “shrunken log2 fold change” value: -0.0536 for the first, 0.121 for the second.

First: RRIRVRPPRLPRPRPRPPPMPRP
Second: RRIRSRPPRLPRPRPRPVLNPRP
The “shrunken log2 fold change” value of the first is higher: 0.641 for the first, -0.169 for the second.

Going from RRIRSRPPRLPRPRPRPETPPRP to RRIRHRPPRLPRPRPRPCDSPRP, the “shrunken log2 fold change” value falls from 1.01 to -0.00145.

Compared with RRIRCRPPRLPRPRPRPYDEPRP, RRIRGRPPRLPRPRPRPSGTPRP is higher in “shrunken log2 fold change” value: -0.144 for the first, 0.913 for the second.

RRIRTRPPRLPRPRPRPKYVPRP and RRIRARPPRLPRPRPRPFSHPRP are within 0.2 log units of each other in “shrunken log2 fold change” value: 0.0339 for the first, -0.124 for the second.

Compared with RRIRLRPPRLPRPRPRPQKQPRP, RRIRDRPPRLPRPRPRPGPGPRP is higher in “shrunken log2 fold change” value: 0.17 for the first, 0.764 for the second.

RRIRARPPRLPRPRPRPDYMPRP and RRIRWRPPRLPRPRPRPKKMPRP are within 0.2 log units of each other in “shrunken log2 fold change” value: -0.0383 for the first, 0.0841 for the second.

RRIRGRPPRLPRPRPRPHMIPRP and RRIRNRPPRLPRPRPRPTEAPRP are within 0.2 log units of each other in “shrunken log2 fold change” value: 0.0265 for the first, 0.21 for the second.

Compared with RRIRMRPPRLPRPRPRPSRSPRP, RRIRSRPPRLPRPRPRPSPWPRP is lower in “shrunken log2 fold change” value: 0.902 for the first, -0.0643 for the second.

RRIRHRPPRLPRPRPRPCCFPRP and RRIRYRPPRLPRPRPRPYHEPRP are within 0.2 log units of each other in “shrunken log2 fold change” value: -0.245 for the first, -0.194 for the second.

In the case of RRIRDRPPRLPRPRPRPKISPRP, the “shrunken log2 fold change” value is reported as -0.203.
